Source: patent publication US20080300210A1

Target: cell receptor(s) in the thrips midgut (Frankliniella occidentalis)
Assay: cell-based or functional assay

Q: What does the source list for “GN-S, soluble version of the Tomato spotted wilt virus (TSWV) GN envelope/membrane glycoprotein (from UniProt P36291 35-309)”?
A: percent of transmitting adults (thrips given an acquisition access period on GN-S mixed with purified TSWV): 8 fold; proportion of thrips infected with virus (real time RT-PCR, insects pre-exposed to GN-S then fed on TSWV-infected plant material): 3 fold
